Assay results published in patent publication US20180086849A1 (Hoffmann-La Roche, published 2018).

What was measured:
[1] = biological target: T1, hu-MCSP(D3 domain)-avi-his (human, UniProt Q6UVK1 1582-2224, biotinylated where used for selection or for coupling to the SA chip); test: SPR (ProteOn XPR36), IgG KD against parental M4-3/ML2
T1 construct: also called human MCSP(D3 domain)-avi-his; human MCSP D3
T1 sequence: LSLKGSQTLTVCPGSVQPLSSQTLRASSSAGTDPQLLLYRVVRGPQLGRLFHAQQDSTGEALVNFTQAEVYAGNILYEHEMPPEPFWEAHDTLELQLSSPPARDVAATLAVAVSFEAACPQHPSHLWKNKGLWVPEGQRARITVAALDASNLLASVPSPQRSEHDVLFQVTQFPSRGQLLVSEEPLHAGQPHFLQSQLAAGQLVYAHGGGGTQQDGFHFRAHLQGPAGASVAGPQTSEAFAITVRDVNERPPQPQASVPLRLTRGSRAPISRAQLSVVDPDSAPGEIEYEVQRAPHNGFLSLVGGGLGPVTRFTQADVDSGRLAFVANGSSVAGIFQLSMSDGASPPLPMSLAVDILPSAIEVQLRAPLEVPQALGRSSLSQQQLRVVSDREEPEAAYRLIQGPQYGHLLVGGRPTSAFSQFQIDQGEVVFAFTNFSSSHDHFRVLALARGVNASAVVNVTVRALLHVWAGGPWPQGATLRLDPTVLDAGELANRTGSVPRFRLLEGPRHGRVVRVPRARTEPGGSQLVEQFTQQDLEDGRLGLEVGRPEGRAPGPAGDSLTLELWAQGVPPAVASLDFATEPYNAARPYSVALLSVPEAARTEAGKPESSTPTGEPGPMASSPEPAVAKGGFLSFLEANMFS
Description: (§1) Briefly, carboxymethylated dextran biosensor chips (CM5, GE Healthcare) were activated with N-ethyl-N′-(3-dimethylaminopropyl)-carbodiimide hydrochloride (EDC) and N-hydroxysuccinimide (NHS) according to the supplier's instructions. Anti-human F(ab′)2 fragment specific capture antibody was diluted with 10 mM sodium acetate, pH 5.0 at 50 μg/ml before injection at a flow rate of 10 μl/minute to achieve approximately up to 10.000 response units (RU) of coupled capture antibody. Following the injection of the capture antibody, 1 M ethanolamine was injected to block unreacted groups. For kinetics measurements, Fabs from bacterial supernatant or purified Fabs are injected at a flow rate of 10 ul/minute for 300 s and a dissociation of 300 s for capture baseline stabilization. […] The surface of the sensorchip was regenerated by injection of glycine pH 1.5 for 30 s at 90 ul/min followed by injection of NaOH for 20 s at the same flow rate. Association rates (kon) and dissociation rates (koff) were calculated using a simple one-to-one Langmuir binding model (ProteOn XPR36 Evaluation Software or Scrubber software (BioLogic)) by simultaneously fitting the association and dissociation sensorgrams. The equilibrium dissociation constant (KD) was calculated as the ratio koff/kon. […] Since CDR1 and 2 of the light chain were randomized independent from CDR3, the obtained CDRs were combined during IgG conversion.
(§2) In the IgG format affinities were measured again to the human MCSP antigen (SEQ ID NO. 390), in addition also to the cynomolgus homologue (SEQ ID NO. 389). Method exactly as described for the Fab fragments, just purified IgG from mammalian production were used.

[2] = biological target: T2, cynomolgus MCSP D3 (cynomolgus, UniProt Q6UVK1 1582-2224 (human entry)); test: as above
T2 construct: also called cynomolgus homologue; not shown: C-terminal tag
T2 chain: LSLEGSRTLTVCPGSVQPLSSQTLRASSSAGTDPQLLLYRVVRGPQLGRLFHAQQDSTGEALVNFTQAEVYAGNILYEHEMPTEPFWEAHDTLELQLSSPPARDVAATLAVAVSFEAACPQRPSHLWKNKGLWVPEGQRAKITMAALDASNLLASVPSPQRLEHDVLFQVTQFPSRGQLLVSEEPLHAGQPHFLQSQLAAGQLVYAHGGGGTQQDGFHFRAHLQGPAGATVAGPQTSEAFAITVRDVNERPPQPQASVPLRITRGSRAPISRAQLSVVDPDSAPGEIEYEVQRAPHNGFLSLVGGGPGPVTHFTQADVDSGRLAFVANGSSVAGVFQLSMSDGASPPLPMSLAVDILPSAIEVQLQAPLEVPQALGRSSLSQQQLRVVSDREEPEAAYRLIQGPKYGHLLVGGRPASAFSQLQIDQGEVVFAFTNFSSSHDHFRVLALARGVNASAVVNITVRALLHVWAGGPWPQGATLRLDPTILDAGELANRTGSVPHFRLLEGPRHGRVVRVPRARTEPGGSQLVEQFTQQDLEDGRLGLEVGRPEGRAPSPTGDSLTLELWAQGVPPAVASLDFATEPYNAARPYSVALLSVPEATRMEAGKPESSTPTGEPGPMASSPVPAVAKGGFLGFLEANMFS
Description: as §1, §2

[3] = biological target: T1, hu-MCSP(D3 domain)-avi-his; test: SPR (ProteOn XPR36), IgG captured, antigen as analyte
Description: Briefly, carboxymethylated dextran biosensor chips (CM5, GE Healthcare) were activated with N-ethyl-N′-(3-dimethylaminopropyl)-carbodiimide hydrochloride (EDC) and N-hydroxysuccinimide (NHS) according to the supplier's instructions. Anti-human F(ab′)2 fragment specific capture antibody was diluted with 10 mM sodium acetate, pH 5.0 at 50 μg/ml before injection at a flow rate of 10 μl/minute to achieve approximately up to 10.000 response units (RU) of coupled capture antibody. Following the injection of the capture antibody, 1 M ethanolamine was injected to block unreacted groups. For kinetics measurements, Fabs from bacterial supernatant or purified Fabs are injected at a flow rate of 10 ul/minute for 300 s and a dissociation of 300 s for capture baseline stabilization. […] Association rates (kon) and dissociation rates (koff) were calculated using a simple one-to-one Langmuir binding model (ProteOn XPR36 Evaluation Software or Scrubber software (BioLogic)) by simultaneously fitting the association and dissociation sensorgrams. The equilibrium dissociation constant (KD) was calculated as the ratio koff/kon. […]
In the IgG format affinities were measured again to the human MCSP antigen (SEQ ID NO. 390), in addition also to the cynomolgus homologue (SEQ ID NO. 389). […]

B1: M4-3(A7)/ML2(C5) (IgG) (antibody, V domains shown)
VH: QVQLQESGPGLVKPSQTLSLTCTVSGGSITDGYYWNWIRQHPGKGLEWIGYITFDGRNNYNPSLKSRVTISRDTSKNQFSLKLSSVTAADTAVYYCADFDYWGQGTLVTVSS
VL: DIQMTQSPSSLSASVGDRVTITCRASRGIREYLNWYQQKPGKAPKLLIYYTGSLHSGVPSRFSGSGSGTDFTLTISSLQPEDFATYYCQQYSELPWTFGQGTKVEIK
notes: Human IgG1 format
With B1 the “Comparative binding affinity - Fold increase over parent” value [1] was 28.6 fold, the “Comparative binding affinity - Fold increase over parent” value [2] was 10 fold and the Kd [3] was 0.07 nM.
